Consider four molecules from PMC3504387 (Chemmedchem, 2012).

The target of experiment [1] is T1, PPARδ (Gal4-PPARδ LBD, transactivation) (Homo sapiens, UniProt Q03181).
T1 construct: gene PPARD
T1 sequence (Q03181 139-441): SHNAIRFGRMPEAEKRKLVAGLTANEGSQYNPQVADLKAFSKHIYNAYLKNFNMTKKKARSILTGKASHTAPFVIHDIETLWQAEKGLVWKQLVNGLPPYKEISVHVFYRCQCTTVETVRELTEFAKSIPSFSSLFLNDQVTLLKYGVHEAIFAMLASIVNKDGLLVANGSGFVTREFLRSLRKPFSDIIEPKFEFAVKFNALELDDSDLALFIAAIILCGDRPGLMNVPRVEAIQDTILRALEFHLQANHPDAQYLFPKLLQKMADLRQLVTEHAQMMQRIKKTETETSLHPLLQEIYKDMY
Kind of experiment: Gal4-LBD luciferase transactivation, BHK21 cells. Conditions: agonist; […] h, […] °C; unreliable. Format: cell-based.

Experiment [2] deals with T2, PPARγ (Gal4-PPARγ LBD, transactivation) (Mus musculus, UniProt P37238).
T2 construct: gene Pparg
T2 sequence (P37238 204-505): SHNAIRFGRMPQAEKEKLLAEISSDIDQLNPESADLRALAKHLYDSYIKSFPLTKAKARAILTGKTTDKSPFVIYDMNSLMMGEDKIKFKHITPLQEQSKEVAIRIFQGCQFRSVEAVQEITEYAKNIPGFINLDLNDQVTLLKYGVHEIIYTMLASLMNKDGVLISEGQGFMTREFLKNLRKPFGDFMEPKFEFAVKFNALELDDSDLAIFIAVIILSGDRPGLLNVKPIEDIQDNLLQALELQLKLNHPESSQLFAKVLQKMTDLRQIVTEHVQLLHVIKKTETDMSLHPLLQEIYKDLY
Kind of experiment: Gal4-LBD luciferase transactivation, BHK21 cells. Format: cell-based. Conditions: agonist; […] h, […] °C; unreliable.

The target in experiment [3] is T3, GST–PPARα (ligand binding domain, TR-FRET) (Homo sapiens, UniProt Q07869).
T3 construct: gene PPARA
T3 sequence (Q07869 196-468 limits assumed): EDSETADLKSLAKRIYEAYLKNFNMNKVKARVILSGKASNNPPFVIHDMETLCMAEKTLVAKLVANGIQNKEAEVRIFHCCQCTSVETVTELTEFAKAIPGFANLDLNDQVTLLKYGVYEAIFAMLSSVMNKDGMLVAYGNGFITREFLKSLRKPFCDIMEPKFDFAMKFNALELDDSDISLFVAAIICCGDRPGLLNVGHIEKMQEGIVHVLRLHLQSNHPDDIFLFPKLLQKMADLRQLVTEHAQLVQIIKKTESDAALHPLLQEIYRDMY
The experiment can be described thus: TR-FRET cofactor peptide recruitment. Background: TR-FRET usually uses a lanthanide donor and a delayed reading to cut background.

Experiment [4] addresses T4, GST–PPARα fusion protein (purified ligand binding domain of PPARα).
T4 sequence (Q07869 whole entry, species assumed, looked up): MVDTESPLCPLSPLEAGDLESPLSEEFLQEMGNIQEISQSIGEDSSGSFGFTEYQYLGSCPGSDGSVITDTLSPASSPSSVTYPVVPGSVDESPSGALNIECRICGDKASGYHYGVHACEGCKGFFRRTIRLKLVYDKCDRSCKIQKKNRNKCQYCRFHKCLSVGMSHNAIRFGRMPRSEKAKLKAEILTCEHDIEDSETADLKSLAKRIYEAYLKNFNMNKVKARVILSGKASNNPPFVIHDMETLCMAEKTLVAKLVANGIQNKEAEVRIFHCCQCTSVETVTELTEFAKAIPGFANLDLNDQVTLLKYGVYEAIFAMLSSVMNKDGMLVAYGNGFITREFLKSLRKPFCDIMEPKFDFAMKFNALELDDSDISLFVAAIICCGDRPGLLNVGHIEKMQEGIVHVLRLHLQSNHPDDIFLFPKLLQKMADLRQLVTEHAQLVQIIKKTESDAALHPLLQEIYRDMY
The experiment can be described thus: FRET or BRET; homogeneous TR-FRET as a1, 12-concentration dose–response of muraglitazar; the EC50 is of the compound; delta ratio in % of the reference compound at 10 μM (RO4899100 for PPARα, edaglitazone for PPARγ).

Experiment [5] deals with T5, GST–PPARγ fusion protein (purified ligand binding domain of PPARγ).
T5 chain: T2 sequence (P37238 204-505)
The experiment is described as above. Conditions: both partners purified.

Experiment [6] addresses T5, GST–PPARγ fusion protein (purified …). The experiment can be described thus: FRET or BRET; homogeneous TR-FRET as a1, 12-concentration dose–response of pioglitazone; the EC50 is of the compound; delta ratio in % of the reference compound at 10 μM (RO4899100 for PPARα, edaglitazone for PPARγ). As to conditions: both partners purified.
For experiment [7] the target is unchanged. The experiment can be described thus: FRET or BRET; homogeneous TR-FRET as a1, 12-concentration dose–response of edaglitazone; the EC50 is of the compound; delta ratio in % of the reference compound at 10 μM (RO4899100 for PPARα, edaglitazone for PPARγ). Conditions: both partners purified.
Experiment [8] has as its target T4, GST–PPARα fusion protein (purified ligand binding domain of PPARα). Kind of experiment: FRET or BRET; homogeneous TR-FRET as a1, 12-concentration dose–response of fenofibric acid; the EC50 is of the compound; delta ratio in % of the reference compound RO4899100 at 10 μM. In general terms: In BRET a luciferase serves as donor, and the signal depends on an acceptor being close.

Experiment [9] has the same target. The experiment can be described thus: FRET or BRET; homogeneous TR-FRET as a1, 12-concentration dose–response of rosiglitazone; the EC50 is of the compound; delta ratio in % of the reference compound at 10 μM (RO4899100 for PPARα, edaglitazone for PPARγ).
Experiment [10] has as its target T5, GST–PPARγ fusion protein (purified …). The experiment can be described thus: FRET or BRET; homogeneous TR-FRET as a1, 12-concentration dose–response of farglitazar; the EC50 is of the compound; delta ratio in % of the reference compound edaglitazone at 10 μM. Conditions: both partners purified.
Experiment [11] deals with T4, GST–PPARα fusion protein (purified ligand binding domain of PPARα). Kind of experiment: FRET or BRET; homogeneous TR-FRET as a1, 12-concentration dose–response of edaglitazone; the EC50 is of the compound; delta ratio in % of the reference compound at 10 μM (RO4899100 for PPARα, edaglitazone for PPARγ).
Experiment [12] has as its target T5, GST–PPARγ fusion protein (purified …). Kind of experiment: FRET or BRET; homogeneous TR-FRET as a1, 12-concentration dose–response of rosiglitazone; the EC50 is of the compound; delta ratio in % of the reference compound at 10 μM (RO4899100 for PPARα, edaglitazone for PPARγ). As to conditions: both partners purified.
Experiment [13] has the same target. Kind of experiment: FRET or BRET; homogeneous TR-FRET as a1, 12-concentration dose–response of aleglitazar; the EC50 is of the compound; delta ratio in % of the reference compound at 10 μM (RO4899100 for PPARα, edaglitazone for PPARγ). As to conditions: both partners purified.
Experiment [14] addresses T4, GST–PPARα fusion protein (purified ligand binding domain of PPARα). The description is as above.
Experiment [15] shares this target. The experiment can be described thus: FRET or BRET; homogeneous TR-FRET as a1, 12-concentration dose–response of RO4899100; the EC50 is of the compound; delta ratio in % of the reference compound at 10 μM (RO4899100 for PPARα, edaglitazone for PPARγ).
Experiment [16] shares this target. The experiment can be described thus: FRET or BRET; homogeneous TR-FRET as a1, 12-concentration dose–response of pioglitazone; the EC50 is of the compound; delta ratio in % of the reference compound at 10 μM (RO4899100 for PPARα, edaglitazone for PPARγ).
For experiment [17] the target is unchanged. Kind of experiment: FRET or BRET; homogeneous TR-FRET as a1, 12-concentration dose–response of tesaglitazar; the EC50 is of the compound; delta ratio in % of the reference compound at 10 μM (RO4899100 for PPARα, edaglitazone for PPARγ).
In experiment [18] the target is T5, GST–PPARγ fusion protein (purified …). The experiment is described as above. As to conditions: both partners purified.

Where no end group is shown, it is not given here. The star is where a group is joined. Biotin = O=C1N[C@H]2[C@H](CS[C@H]2CCCCC(=O)*)N1; Ahx = NCCCCCC(=O)O

The term EC50 denotes the concentration needed to bring the measured effect to its halfway point. Low readings indicate an effect from little substance, high ones a need for much substance. Regarding `CC(C)(Oc1ccc(C(=O)c2ccc(Cl)cc2)cc1)C(=O)O` [Fenofibric acid], the “EC50” value in experiment [1] was 1060 nM. Besides, the “PPARδ / EC50” value in [2] worked out at 1470 nM.
On to `Cc1oc(-c2ccccc2)nc1CCOc1ccc(CC2SC(=O)NC2=O)c2sccc12` (centres unmarked) [Edaglitazone], for which, in experiment [3], the EC50 came to 1050 nM. This lies in the single-digit micromolar range.
As for `Cc1nc(-c2ccc(C(F)(F)F)cc2)ccc1CN(C)C(=O)c1cccc(OC(C)(C)C(=O)O)c1` [RO4899100, 2-methyl-2-(3-{methyl-[2-methyl-6-(4-trifluoromethyl-phenyl)pyridin-3-ylmethyl]carbamoyl}phenoxy)propionic acid], the “PPARδ / EC50 [nM]” value in [2] was 19 900 nM.

B1: NCoR ID2 cofactor peptide (nuclear receptor co-repressor, interaction domain 2) (peptide)
peptide: {Biotin-Ahx}-ADPASNLGLEDIIRKALMGSF
notes: nuclear receptor co-repressor (NCoR), ID2; also called NCoR2; NcoR2; source: synthetic peptide (Jerini or Biosynthan, Berlin)
Consider B1, for which, in [4], the EC50 of muraglitazar for displacement was 139 nM and the delta ratio with muraglitazar was -50%. Besides, the “EC50 of muraglitazar for displacement” value in [5] is 63.4 nM. Besides, the “EC50 of pioglitazone for displacement” value in experiment [6] was 9420 nM. Also, in experiment [7], the “EC50 of edaglitazone for displacement” value was 57.1 nM. Also, in experiment [8], the EC50 of fenofibric acid for displacement was 1900 nM and the delta ratio with fenofibric acid was -55%. Further, in [9], the EC50 of rosiglitazone for displacement was 3000 nM and the delta ratio with rosiglitazone was -31%. Moreover, the “EC50 of farglitazar for displacement” value in [10] stood at 13.6 nM. In addition, in experiment [11], the EC50 of edaglitazone for displacement worked out at 1950 nM and the delta ratio with edaglitazone is -44%. Moreover, the “EC50 of rosiglitazone for displacement” value in experiment [12] was 497 nM. The “EC50 of aleglitazar for displacement” value in [13] was found to be 15.3 nM. Besides, in experiment [14], the EC50 of aleglitazar for displacement was determined as 1.7 nM and the delta ratio with aleglitazar is -61%. Also, the EC50 of RO4899100 for displacement in [15] stood at 18.5 nM. Besides, in experiment [16], the EC50 of pioglitazone for displacement came out at 3220 nM and the delta ratio with pioglitazone is -54%. In experiment [17], the EC50 of tesaglitazar for displacement was found to be 646 nM and the delta ratio with tesaglitazar is -54%. The “EC50 of tesaglitazar for displacement” value in [18] worked out at 537 nM.
